{"source": "paper PMC9262582", "biological_target": "Rum pol (RumA′2B), His-tagged on RumB (integrative conjugative element R391)", "data": [{"substance": "S. aureus RecA (from UniProt A5ISG9 1-347) (natural protein)", "values": [{"measurement": "primer extension (% PE) by Rum Mut-Sa transactivated with Sa RecA*", "value": 4, "unit": "% PE"}]}]}
